Results taken from patent publication US20260193376A1 (Novo Nordisk, published 2026).
Positions count from the first letter of the chain named. Each block holds one binder with its values, some of them ahead of it.

Legend:
[1] = biological target: T1, human plasma-derived Factor IXa (human, UniProt P00740 47-191; P00740 227-461); assay: cell-based or functional assay
[2] = biological target: FIX D332S with C-terminal His-tag (human, UniProt P00740 47-461); assay: SPR (Biacore T200), FIX variant captured via His-tag, 20 µM OA antibody
Protocol: (§1) SPR analyses were carried out on Biacore T200 instruments (Biacore AB, Uppsala, Sweden). For the experiments on the T200 instrument the following conditions were applied: measurements were conducted at a temperature of 25° C. Anti-His antibody at 25 μg/ml (R&D Systems, catalogue #MAB050) was immobilized on a CM5 sensor chip using standard amine coupling chemistry. […] at 25 nM were injected at a flow rate of 10 μl/min for 1 min and were captured via their His-tag by the immobilized anti-His antibody. […] The running buffer used was 20 mM Tris, 150 mM NaCl, 5 mM CaCl₂, 0.05% Tween-20, 10 mg/ml BSA, pH 7.4. This was also used for dilution of anti-FIX antibody and FIX samples. Regeneration of the chip was achieved using 10 mM Glycine pH 2.0. Binding data were analysed according to a 1:1 model using BiaEvaluation 4.1 supplied by the manufacturer (Biacore AB, Uppsala, Sweden).
(§2) where Rmax_FIXvar and Rmax_FIXwt represent capture level (RU) of FIX variant and wild-type FIX, respectively, and where R_{max_Ab,FIX_var} and R_{max_Ab,FIX_wt} represent Rmax (RU) of the 20 μM antibody to captured FIX variant and wild-type FIX, respectively.

[3] = biological target: FIX D332A with C-terminal His-tag (human, UniProt P00740 47-461); assay: as above
Protocol: as §1, §2

[4] = biological target: FIX R333A with C-terminal His-tag (human, UniProt P00740 47-461); assay: as above
Chain of FIX R333A with C-terminal His-tag (P00740 other isoform, or with tags, fused parts or gaps R333A R333A limits assumed): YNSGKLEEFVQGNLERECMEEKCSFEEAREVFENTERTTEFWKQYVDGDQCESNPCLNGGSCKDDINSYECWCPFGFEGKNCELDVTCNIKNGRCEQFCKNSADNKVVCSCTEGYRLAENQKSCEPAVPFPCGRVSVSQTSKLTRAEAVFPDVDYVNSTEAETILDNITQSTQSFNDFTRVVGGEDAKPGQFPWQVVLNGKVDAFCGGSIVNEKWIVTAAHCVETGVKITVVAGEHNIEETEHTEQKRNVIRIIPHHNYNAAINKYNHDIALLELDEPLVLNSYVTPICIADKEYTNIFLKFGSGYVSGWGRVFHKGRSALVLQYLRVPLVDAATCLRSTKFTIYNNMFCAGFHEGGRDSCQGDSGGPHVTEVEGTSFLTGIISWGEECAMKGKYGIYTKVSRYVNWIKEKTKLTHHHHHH
Protocol: as §1, §2

[5] = biological target: FIX A334L with C-terminal His-tag (human, UniProt P00740 47-461); assay: as above
Protocol: as §1, §2

[6] = biological target: FIX T335A with C-terminal His-tag (human, UniProt P00740 47-461); assay: as above
Chain of FIX T335A with C-terminal His-tag (P00740 other isoform, or with tags, fused parts or gaps T335A T335A limits assumed): as the sequence (P00740 other isoform, or with tags, fused parts or gaps R333A R333A limits assumed) above, with A333R, T335A counted along it
Protocol: as §1, §2

[7] = biological target: FIX L337A with C-terminal His-tag (human, UniProt P00740 47-461); assay: as above
Chain of FIX L337A with C-terminal His-tag (P00740 other isoform, or with tags, fused parts or gaps L337A L337A limits assumed): as the sequence (P00740 other isoform, or with tags, fused parts or gaps R333A R333A limits assumed) above, with A333R, L337A counted along it
Protocol: as §1, §2

[8] = biological target: FIX R338A with C-terminal His-tag (human, UniProt P00740 47-461); assay: as above
Chain of FIX R338A with C-terminal His-tag (P00740 other isoform, or with tags, fused parts or gaps R338A R338A limits assumed): as the sequence (P00740 other isoform, or with tags, fused parts or gaps R333A R333A limits assumed) above, with A333R, R338A counted along it
Protocol: as §1, §2

[9] = biological target: FIX S339L with C-terminal His-tag (human, UniProt P00740 47-461); assay: as above
Chain of FIX S339L with C-terminal His-tag (P00740 other isoform, or with tags, fused parts or gaps S339L S339L limits assumed): as the sequence (P00740 other isoform, or with tags, fused parts or gaps R333A R333A limits assumed) above, with A333R, S339L counted along it
Protocol: as §1, §2

[10] = biological target: FIX T340A with C-terminal His-tag (human, UniProt P00740 47-461); assay: as above
Protocol: as §1, §2

[11] = biological target: FIX K341E with C-terminal His-tag (human, UniProt P00740 47-461); assay: as above
Protocol: as §1, §2

[12] = biological target: FIX K341A with C-terminal His-tag (human, UniProt P00740 47-461); assay: as above
Chain of FIX K341A with C-terminal His-tag (P00740 other isoform, or with tags, fused parts or gaps K341A K341A limits assumed): as the sequence (P00740 other isoform, or with tags, fused parts or gaps R333A R333A limits assumed) above, with A333R, K341A counted along it
Protocol: as §1, §2

[13] = biological target: FIX T343I with C-terminal His-tag (human, UniProt P00740 47-461); assay: as above
Chain of FIX T343I with C-terminal His-tag (P00740 other isoform, or with tags, fused parts or gaps T343I T343I limits assumed): as the sequence (P00740 other isoform, or with tags, fused parts or gaps R333A R333A limits assumed) above, with A333R, T343I counted along it
Protocol: as §1, §2

[14] = biological target: FIX T343A with C-terminal His-tag (human, UniProt P00740 47-461); assay: as above
Protocol: as §1, §2

[15] = biological target: FIX N346Q with C-terminal His-tag (human, UniProt P00740 47-461); assay: as above
Chain of FIX N346Q with C-terminal His-tag (P00740 other isoform, or with tags, fused parts or gaps N346Q N346Q limits assumed): as the sequence (P00740 other isoform, or with tags, fused parts or gaps R333A R333A limits assumed) above, with A333R, N346Q counted along it
Protocol: as §1, §2

[16] = biological target: FIX N346A with C-terminal His-tag (human, UniProt P00740 47-461); assay: as above
Protocol: as §1, §2

[17] = biological target: FIX K301A with C-terminal His-tag (human, UniProt P00740 47-461); assay: as above
Protocol: as §1, §2

[18] = biological target: T2, wild-type FIX with C-terminal His-tag (human, UniProt P00740 47-461); assay: SPR (Biacore T200), wild-type FIX captured via His-tag, 20 µM OA antibody (reference)
T2 construct: also called WT
Protocol: as §1, §2

[19] = biological target: T3, human coagulation Factor IX (human, UniProt P00740 47-461); assay: ITC, 37 °C, pH 7.4, antibody injected into FIX
T3 construct: also called FIX
Protocol: (§3) Binding affinities for anti-FIX(a) and anti-FX(a) antibodies were measured by isothermal titration calorimetry […] by using a PEAQ-ITC calorimeter (Malvern, UK). The experiments were conducted at 37° C. and pH 7.4 using 25 mM Tris, 150 mM NaCl, 5 mM CaCl₂ (Tris-buffer). The sample cell (200 μl) contained either FIX, FIXa, or FX (macromolecule) and anti-FIX(a) and anti-FX(a) antibodies (ligand) were injected via a syringe (40 μl). All proteins were extensively dialyzed in Tris-buffer prior to measurements to secure matched buffer conditions. A thermal equilibration step was followed by a 60 s delay and subsequently an initial 0.2 μl injection of antibody, followed by 12-16 injections of 1.5-3 μl of antibody at an interval of 120 s. The stirring speed was maintained at 750 rpm, and the reference power is kept constant at 5-10 μcal/s. The heat associated with each injection of antibody is integrated and plotted against the molar ratio of ligand to macromolecule. The resulting isotherm is fitted to a one-site binding model to obtain the affinity (KD), stoichiometry (n), and enthalpy of interaction (ΔH) using the software provided by the manufacturer. Experiments were performed in at least duplicates.

[20] = biological target: T1, human plasma-derived Factor IXa; assay: ITC, 37 °C, pH 7.4, antibody injected into FIXa
Protocol: as §3

[21] = biological target: T4, randomly biotinylated human FIXa (human, UniProt P00740 47-191; P00740 227-461, randomly biotinylated (NHS-d-biotin)); assay: BLI (Octet) in-tandem binning on biotinylated FIXa, 330 nM each; competitor (1st antibody): 224F3
T4 sequence (P00740 47-191, chain 1 of 2): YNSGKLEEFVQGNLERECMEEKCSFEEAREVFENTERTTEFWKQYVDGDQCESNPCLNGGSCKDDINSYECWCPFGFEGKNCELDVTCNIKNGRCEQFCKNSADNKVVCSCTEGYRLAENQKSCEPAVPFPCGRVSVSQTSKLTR
T4 sequence (P00740 227-461, chain 2 of 2): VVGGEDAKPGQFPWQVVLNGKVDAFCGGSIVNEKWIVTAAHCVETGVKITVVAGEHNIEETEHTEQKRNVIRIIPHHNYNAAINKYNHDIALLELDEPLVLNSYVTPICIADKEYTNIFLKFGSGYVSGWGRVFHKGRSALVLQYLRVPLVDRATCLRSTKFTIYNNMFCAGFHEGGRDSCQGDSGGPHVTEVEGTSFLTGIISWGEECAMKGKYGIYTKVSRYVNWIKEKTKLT
Protocol: (§4) Binning experiments were performed using Octet fortebio systems (HTX, Red384), based on the principle of Bio-Layer Interferometry, and equipped with streptavidin sensors (Pall Life Sciences, Menlo Park, CA), and using 8-channel mode. The binning assays were performed using a modified in-tandem setup. Briefly, (1) 370 nM randomly biotinylated human FIXa (biotinylated using NHS-d-biotin from Sigma H1759 and human FIXa obtained from Haematologic Technologies, Essex Junction, VT) was captured by streptavidin tips (dip and read biosensors Part NO:18-5019, Pall Life Sciences, Menlo Park, CA) for 5 minutes, (2) 330 nM of a first bivalent anti-FIXa antibody was then offered to the streptavidin tips, and incubated for 10 minutes until the biotinylated FIXa were fully saturated and (3) the tips were then offered to an equimolar solution of 330 nM of the first antibody and 330 nM of a second bivalent anti-FIXa antibody for 5 minutes. […] Unspecific binding were evaluated by including an unrelated human IgG4 bivalent antibody as first and second antibody control.

[22] = biological target: T4, randomly biotinylated human FIXa; assay: BLI (Octet) in-tandem binning on biotinylated FIXa, 330 nM each; competitor (1st antibody): mAb01-1767
Protocol: as §4

[23] = biological target: T4, randomly biotinylated human FIXa; assay: BLI (Octet) in-tandem binning on biotinylated FIXa, 330 nM each; competitor (1st antibody): mAb01-2434
Protocol: as §4

[24] = biological target: T4, randomly biotinylated human FIXa; assay: BLI (Octet) in-tandem binning on biotinylated FIXa, 330 nM each; competitor (1st antibody): hIgG4 (control)
Protocol: as §4

[25] = biological target: T5, human coagulation Factor X (human, UniProt P00742 41-179; P00742 183-488); assay: ITC, 37 °C, pH 7.4, antibody injected into FX
T5 construct: also called FX
T5 sequence (P00742 41-179, chain 1 of 2): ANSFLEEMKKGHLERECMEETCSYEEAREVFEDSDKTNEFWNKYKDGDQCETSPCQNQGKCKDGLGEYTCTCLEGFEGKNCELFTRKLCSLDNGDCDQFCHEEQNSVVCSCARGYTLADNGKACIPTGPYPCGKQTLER
T5 sequence (P00742 183-488, chain 2 of 2): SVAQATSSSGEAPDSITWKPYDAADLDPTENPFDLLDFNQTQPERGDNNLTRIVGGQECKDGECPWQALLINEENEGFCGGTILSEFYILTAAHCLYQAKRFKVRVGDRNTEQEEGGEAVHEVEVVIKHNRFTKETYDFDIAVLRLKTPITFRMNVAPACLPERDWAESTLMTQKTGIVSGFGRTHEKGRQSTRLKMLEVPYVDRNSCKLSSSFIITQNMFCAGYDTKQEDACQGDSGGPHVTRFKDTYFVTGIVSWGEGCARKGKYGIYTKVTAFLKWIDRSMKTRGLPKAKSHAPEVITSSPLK
Protocol: as §3

T1 sequence (P00740 47-191, chain 1 of 2): as the sequence (P00740 47-191, chain 1 of 2) above
T1 sequence (P00740 227-461, chain 2 of 2): as the sequence (P00740 227-461, chain 2 of 2) above

B1: one-armed (OA) mAb01-9994 (antibody, V domains shown)
VH: EVQLVESGGGLVQPGRSLRLSCAASGFTFHDYAMHWVRQVPGKGLEWVSGISWKGDIGGYVDSVKGRFTISRDNEKNSLYLQMNSLRAEDTALYYCVKSYGSGSFYNAFDSWGQGTLVTVSS
VL: DIQMTQSPSTLSASVGDRVTITCRASQSISSWLAWYQQKPGKAPKFLIYKASRLDRGTPSRFSGSGSGTEFSLTISSLQPDDFATYYCLEYSSYIRTFGQGTKVEIK
notes: also called OA variant of mAb01-9994
Stimulation Index, FXa generation assay, 3600 nM OA antibody [1]: 10600 fold | Binding (%) relative to wild-type FIX [2]: 41% | Binding (%) relative to wild-type FIX [3]: 41% | Binding (%) relative to wild-type FIX [4]: 55% | Binding (%) relative to wild-type FIX [5]: 38% | Binding (%) relative to wild-type FIX [6]: 43% | Binding (%) relative to wild-type FIX [7]: 38% | Binding (%) relative to wild-type FIX [8]: 0% | Binding (%) relative to wild-type FIX [9]: 46% | Binding (%) relative to wild-type FIX [10]: 16% | Binding (%) relative to wild-type FIX [11]: 3% | Binding (%) relative to wild-type FIX [12]: 18% | Binding (%) relative to wild-type FIX [13]: 62% | Binding (%) relative to wild-type FIX [14]: 58% | Binding (%) relative to wild-type FIX [15]: 101% | Binding (%) relative to wild-type FIX [16]: 92% | Binding (%) relative to wild-type FIX [17]: 89% | Binding (%) relative to wild-type FIX [18]: 100%

B5: mAb01-8913 (antibody, V domains shown)
VH: EVQLVQSGAEVKKPGESLRISCKGSGYSFSTSWIVWVRQMPGKGLEWMGMIDPSDSFTSYSPSFQGHVTISADKSISTAYLQWSSLKASDTAMYYCARLHYYNSEEFDVWGQGTLVTVSS
VL: EIVLTQSPGTLSLSAGERATLSCRASQSVSSSYLAWYQQKPGQAPRLLIYGASSRARGIPDRFSGSGSGTDFTLTISRLEPEDFAVYYCQQFGSSRLFTFGQGTKLEIK
notes: Bivalent IgG
Kd [25]: 350 nM

B6: mAb01-9772 (antibody, V domains shown)
VH: B5 VH with V35S, F57Y, L115M
VL: B5 VL with A15P, A52Q, A56T, F92Y, S94D, R96Q
notes: Bivalent IgG
Kd [25]: 1370 nM

Further lines, results first:

Kd [19]: 5.6 µM | Kd [20]: 3570 nM | interferometry response value [21]: 0.24 | interferometry response value [22]: 0.01 | interferometry response value [23]: 0.34 | interferometry response value [24]: 0.4
B2: mAb01-9978 (antibody, V domains shown)
VH: B1 VH
VL: B1 VL with F46L, D55E
notes: Bivalent IgG

Kd [19]: 1.92 µM | Kd [20]: 1260 nM | interferometry response value [21]: 0.44 | interferometry response value [22]: 0.02 | interferometry response value [23]: 0.6 | interferometry response value [24]: 0.83
B3: mAb01-9985 (antibody, V domains shown)
VH: B1 VH with K54R, D62K, E75A
VL: B1 VL with R53K, D55E
notes: Bivalent IgG

Stimulation Index, FXa generation assay, 2400 nM OA antibody [1]: 13700 fold | Binding (%) relative to wild-type FIX [2]: 59% | Binding (%) relative to wild-type FIX [3]: 59% | Binding (%) relative to wild-type FIX [4]: 73% | Binding (%) relative to wild-type FIX [5]: 60% | Binding (%) relative to wild-type FIX [6]: 64% | Binding (%) relative to wild-type FIX [7]: 61% | Binding (%) relative to wild-type FIX [8]: 8% | Binding (%) relative to wild-type FIX [9]: 66% | Binding (%) relative to wild-type FIX [10]: 29% | Binding (%) relative to wild-type FIX [11]: 10% | Binding (%) relative to wild-type FIX [12]: 30% | Binding (%) relative to wild-type FIX [13]: 84% | Binding (%) relative to wild-type FIX [14]: 86% | Binding (%) relative to wild-type FIX [15]: 93% | Binding (%) relative to wild-type FIX [16]: 100% | Binding (%) relative to wild-type FIX [17]: 94% | Binding (%) relative to wild-type FIX [18]: 100%
B4: one-armed (OA) mAb01-9985 (antibody, V domains shown)
VH: B1 VH with K54R, D62K, E75A
VL: B1 VL with R53K, D55E
notes: also called OA variant of mAb01-9985
